Laboratory results as given in article PMC4055269 (Molecular Biology of the Cell, 2014).

Target: the molecule itself
Assay: SEC-MALS

B1: Drp1 C505A (enzyme, human, UniProt O00429-4 1-699, looked up)
chain: MEALIPVINKLQDVFNTVGADIIQLPQIVVVGTQSSGKSSVLESLVGRDLLPRGTGIVTRRPLILQLVHVSQEDKRKTTGEENGVEAEEWGKFLHTKNKLYTDFDEIRQEIENETERISGNNKGVSPEPIHLKIFSPNVVNLTLVDLPGMTKVPVGDQPKDIELQIRELILRFISNPNSIILAVTAANTDMATSEALKISREVDPDGRRTLAVITKLDLMDAGTDAMDVLMGRVIPVKLGIIGVVNRSQLDINNKKSVTDSIRDEYAFLQKKYPSLANRNGTKYLARTLNRLLMHHIRDCLPELKTRINVLAAQYQSLLNSYGEPVDDKSATLLQLITKFATEYCNTIEGTAKYIETSELCGGARICYIFHETFGRTLESVDPLGGLNTIDILTAIRNATGPRPALFVPEVSFELLVKRQIKRLEEPSLRCVELVHEEMQRIIQHCSNYSTQELLRFPKLHDAIVEVVTCLLRKRLPVTNEMVHNLVAIELAYINTKHPDFADAAGLMNNNIEEQRRNRLARELPSAVSRDKVASGGGGVGDGVQEPTTGNWRGMLKTSKAEELLAEEKSKPIPIMPASPQKGHAVNLLDVPVPVARKLSAREQRDCEVIERLIKSYFLIVRKNIQDSVPKAVMHFLVNHVKDTLQSELVGQLYKSSLLDDLLTESEDMAQRRKEAADMLKALQGASQIIAEIRETHLW
stoichiometry N: 2
